Source: article PMC5347692, “Serpin E2 promotes breast cancer metastasis by remodeling the tumor matrix and polarizing tumor associated macrophages” (Oncotarget, 2016)

Molecular target: T1, human recombinant tPA (human, UniProt P00750 36-562)
T1 construct: The sentence 'Human recombinant serpinE2 and tPA were purchased from R&D' is read as human for both; source: bought: R&D
Test: SDS-stable complex seen by western blot; recombinant serpinE2 and tPA bound to each other beforehand, complex immunoprecipitated with Ab11 and Protein G, western blot with a serpinE2-specific antibody; complex band above uncomplexed serpinE2
Settings: both partners purified

T1 sequence (P00750 36-562): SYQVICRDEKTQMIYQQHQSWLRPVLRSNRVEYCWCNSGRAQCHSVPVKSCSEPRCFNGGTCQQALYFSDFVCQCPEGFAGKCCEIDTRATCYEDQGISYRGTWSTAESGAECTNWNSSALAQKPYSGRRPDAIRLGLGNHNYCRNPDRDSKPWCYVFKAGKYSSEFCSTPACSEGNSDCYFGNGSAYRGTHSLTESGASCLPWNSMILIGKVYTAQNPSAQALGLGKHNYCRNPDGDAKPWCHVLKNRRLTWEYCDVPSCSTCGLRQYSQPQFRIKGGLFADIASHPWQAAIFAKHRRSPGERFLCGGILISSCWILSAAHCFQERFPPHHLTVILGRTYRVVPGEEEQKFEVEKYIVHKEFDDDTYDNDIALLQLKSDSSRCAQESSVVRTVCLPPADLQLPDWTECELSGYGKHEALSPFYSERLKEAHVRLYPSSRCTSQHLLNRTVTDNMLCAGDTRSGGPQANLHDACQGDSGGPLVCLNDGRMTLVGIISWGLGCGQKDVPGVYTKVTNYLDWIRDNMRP

- binding result: binds
B1: human recombinant serpinE2 (natural protein, UniProt P07093 20-398, looked up)
chain: SHFNPLSLEELGSNTGIQVFNQIVKSRPHDNIVISPHGIASVLGMLQLGADGRTKKQLAMVMRYGVNGVGKILKKINKAIVSKKNKDIVTVANAVFVKNASEIEVPFVTRNKDVFQCEVRNVNFEDPASACDSINAWVKNETRDMIDNLLSPDLIDGVLTRLVLVNAVYFKGLWKSRFQPENTKKRTFVAADGKSYQVPMLAQLSVFRCGSTSAPNDLWYNFIELPYHGESISMLIALPTESSTPLSAIIPHISTKTIDSWMSIMVPKRVQVILPKFTAVAQTDLKEPLKVLGITDMFDSSKANFAKITTGSENLHVSHILQKAKIEVSEDGTKASAATTAILIARSSPPWFIVDRPFLFFIRHNPTGAVLFMGQINKP
notes: serpinE2 (PN-1, protease nexin-1), human, recombinant, bought; With tPA it forms the serpin/protease complex that is seen as a band above uncomplexed serpinE2 on the western blot; also called PN-1; purified human serpinE2; source: bought: R&D
